From publication PMC9056527, “Aptamer loaded superparamagnetic beads for selective capturing and gentle release of activated protein C” come the findings set out here.

For one series, the target named is human α-thrombin (human) (UniProt P00734).
Series [1] deals with T1, activated protein C (APC) (UniProt P04070;P04070 43-197;212-461). Kind of series: pull-down (aptamer-loaded magnetic beads); Ca2+ binding buffer; 10 µg APC; Binding buffer with Ca2+ (composition not in material); elution buffer 10 mM Tris-HCl, 144 mM NaCl, pH 7.4, 5 mM EDTA; bead capture at RT, 30 min. The conditions noted are these: protein: commercial; copies: 1;1.
T1 sequence (P04070 43-197, chain 1 of 2): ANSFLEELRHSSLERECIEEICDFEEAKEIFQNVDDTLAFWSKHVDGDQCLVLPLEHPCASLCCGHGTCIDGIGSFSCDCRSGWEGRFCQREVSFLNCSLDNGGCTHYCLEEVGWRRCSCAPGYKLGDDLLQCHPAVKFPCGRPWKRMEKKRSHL
T1 sequence (P04070 212-461, chain 2 of 2): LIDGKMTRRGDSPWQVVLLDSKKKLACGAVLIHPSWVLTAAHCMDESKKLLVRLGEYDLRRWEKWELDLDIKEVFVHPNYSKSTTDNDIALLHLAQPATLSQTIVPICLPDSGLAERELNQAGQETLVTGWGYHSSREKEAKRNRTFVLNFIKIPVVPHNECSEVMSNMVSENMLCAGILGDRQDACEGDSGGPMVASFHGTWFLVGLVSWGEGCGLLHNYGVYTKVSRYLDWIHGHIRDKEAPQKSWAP
In series [2] the target is T1, activated protein C (APC). Kind of series: BLI; dissociation in binding buffer (Ca2+); 500 nM APC; Binding buffer with Ca2+ (composition not in material); elution buffer 10 mM Tris-HCl, 144 mM NaCl, pH 7.4, 5 mM EDTA; bead capture at RT, 30 min. The conditions noted are these: protein: commercial; copies: 1;1; label: 3'-TEG-biotin. For orientation: Biolayer interferometry detects binding as a change in optical thickness at a sensor tip.

The target of series [3] is protein C (PC, zymogen, Ceprotin) (UniProt P04070;P04070 43-197;200-461). Kind of series: pull-down (aptamer-loaded magnetic beads); PC activation mixture; PC in eluate below <0.2-0.24 µg/ml; Binding buffer with Ca2+ (composition not in material); elution buffer 10 mM Tris-HCl, 144 mM NaCl, pH 7.4, 5 mM EDTA; bead capture at RT, 30 min. Conditions: protein: commercial; copies: 1;1.
Sequence of protein C (PC, zymogen, Ceprotin) (P04070 43-197, chain 1 of 2): as the sequence (P04070 43-197, chain 1 of 2) above
Sequence of protein C (PC, zymogen, Ceprotin) (P04070 200-461, chain 2 of 2): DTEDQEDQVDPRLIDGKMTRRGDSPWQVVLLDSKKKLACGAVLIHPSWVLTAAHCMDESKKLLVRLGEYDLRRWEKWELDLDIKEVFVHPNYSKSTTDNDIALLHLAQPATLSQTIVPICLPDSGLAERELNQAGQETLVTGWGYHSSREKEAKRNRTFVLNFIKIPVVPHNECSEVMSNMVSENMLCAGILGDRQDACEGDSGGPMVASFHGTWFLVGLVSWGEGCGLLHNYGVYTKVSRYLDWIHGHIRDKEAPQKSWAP

Series [4] deals with T1, activated protein C (APC). Kind of series: pull-down (aptamer-loaded magnetic beads); Ca2+ binding buffer; eluted with 5 mM EDTA; Binding buffer with Ca2+ (composition not in material); elution buffer 10 mM Tris-HCl, 144 mM NaCl, pH 7.4, 5 mM EDTA; bead capture at RT, 30 min. The conditions noted are these: protein: commercial; copies: 1;1.

In the series with human α-thrombin (human), “recombinant hirudin (Refludan, Bayer Health Care) (natural protein)” displayed an IC50 of hirudin for thrombin-catalysed hydrolysis of the fluorogenic substrate Boc-Asp(OBzl)-Pro-Arg-AMC; 2.5 µg/ml (68 nM) thrombin, hirudin 14 nM to 14 µM, 30 min in activation buffer of 0.17 µM; an IC50 of hirudin for thrombin-catalysed hydrolysis of the fluorogenic substrate Boc-Asp(OBzl)-Pro-Arg-AMC; 12.5 µg/ml (341 nM) thrombin, hirudin 14 nM to 14 µM, 30 min in activation buffer of 1.96 µM; an IC50 of hirudin for thrombin-catalysed hydrolysis of the fluorogenic substrate Boc-Asp(OBzl)-Pro-Arg-AMC; 20 µg/ml (545 nM) thrombin, hirudin 14 nM to 14 µM, 30 min in activation buffer of 2.26 µM.

B1: AD02-52 (antisense control) (ssDNA)
DNA: GCCTCCTAAGAGCCCCATCCGGGATAAGTCGAGTACAGCTCAGTTAGGAGGC
modifications: 3'-HEG-amino
Consider B1, for which the binding result in series [1] was “no binding”.

B2: HS02-52G (ssDNA)
DNA: GCCTCCTAACTGAGCTGTACTCGACTTATCCCGGATGGGGCTCTTAGGAGGC
Turning to B2, the binding result in series [2] is “binds”.

B3: HS02-52G-NH2 (ssDNA)
DNA: GCCTCCTAACTGAGCTGTACTCGACTTATCCCGGATGGGGCTCTTAGGAGGC
modifications: 3'-HEG-amino
As to B3, the binding result in series [3] is listed as “no binding”; in series [4], “binds”.
